Measurements reported in paper PMC9482650, “Quantitative fragmentomics allow affinity mapping of interactomes” (Nature Communications, 2022).

Experiments:
Test in all cases: holdup assay
Parameters in all cases: key: below the threshold = too weak to quantify, mostly under pKd 3.1 to 4
[1] = biological target: T1, APBA1_1, Q02410
T1 sequence (Q02410 651-752, limits assumed, looked up): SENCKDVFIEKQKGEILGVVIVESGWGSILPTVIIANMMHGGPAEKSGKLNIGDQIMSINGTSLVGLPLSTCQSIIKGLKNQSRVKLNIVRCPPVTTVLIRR

[2] = biological target: LNX1_2, Q8TBB1
Chain of LNX1_2, Q8TBB1 (Q8TBB1 371-470): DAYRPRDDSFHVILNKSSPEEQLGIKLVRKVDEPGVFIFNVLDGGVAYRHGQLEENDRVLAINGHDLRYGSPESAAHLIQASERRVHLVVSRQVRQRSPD

[3] = biological target: T2, DFNB31_2, Q9P202
T2 sequence (Q9P202 274-371, limits assumed, looked up): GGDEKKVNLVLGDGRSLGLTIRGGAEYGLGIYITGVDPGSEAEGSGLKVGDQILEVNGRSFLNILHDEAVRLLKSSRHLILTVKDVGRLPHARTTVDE

[4] = biological target: T3, SNTA1, Q13424
T3 sequence (Q13424 82-180, limits assumed, looked up): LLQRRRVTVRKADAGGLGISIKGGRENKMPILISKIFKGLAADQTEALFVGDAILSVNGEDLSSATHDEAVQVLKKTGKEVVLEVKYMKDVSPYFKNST

[5] = biological target: T4, PARD3B_1, Q8TEW8
T4 sequence (Q8TEW8 196-299, limits assumed, looked up): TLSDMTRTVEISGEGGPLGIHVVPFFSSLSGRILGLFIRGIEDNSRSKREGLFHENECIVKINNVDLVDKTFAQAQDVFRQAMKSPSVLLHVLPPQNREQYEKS

[6] = biological target: SCRIB_1, Q14160
Chain of SCRIB_1, Q14160 (Q14160 718-814): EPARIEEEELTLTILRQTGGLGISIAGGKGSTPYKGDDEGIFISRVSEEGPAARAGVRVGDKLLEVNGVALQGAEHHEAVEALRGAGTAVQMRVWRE

[7] = biological target: GRASP, Q7Z6J2
Chain of GRASP, Q7Z6J2 (Q7Z6J2 96-193): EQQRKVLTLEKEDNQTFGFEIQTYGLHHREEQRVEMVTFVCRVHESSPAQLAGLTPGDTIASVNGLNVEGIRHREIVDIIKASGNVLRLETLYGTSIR

[8] = biological target: HTRA1, Q92743
Chain of HTRA1, Q92743 (Q92743 360-477): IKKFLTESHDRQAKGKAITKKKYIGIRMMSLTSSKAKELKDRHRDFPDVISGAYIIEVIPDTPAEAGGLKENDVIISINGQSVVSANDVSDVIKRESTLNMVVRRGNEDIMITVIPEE

[9] = biological target: MAST2, Q6P0Q8
Chain of MAST2, Q6P0Q8 (Q6P0Q8 1099-1202): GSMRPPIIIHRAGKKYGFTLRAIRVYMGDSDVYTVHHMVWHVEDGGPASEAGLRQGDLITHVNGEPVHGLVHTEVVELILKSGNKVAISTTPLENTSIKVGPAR

[10] = biological target: T5, GRIP1_2, Q9Y3R0
T5 sequence (Q9Y3R0 145-248, limits assumed, looked up): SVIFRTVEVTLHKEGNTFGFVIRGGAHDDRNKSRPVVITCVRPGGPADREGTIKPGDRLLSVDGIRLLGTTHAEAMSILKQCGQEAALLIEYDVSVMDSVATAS

[11] = biological target: T6, DFNB31_3, Q9P202
T6 sequence (Q9P202 811-907, limits assumed, looked up): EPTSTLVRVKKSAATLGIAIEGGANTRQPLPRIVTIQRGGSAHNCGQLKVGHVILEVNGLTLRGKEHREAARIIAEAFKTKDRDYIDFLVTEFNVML

[12] = biological target: MAGI2_4, Q86UL8
Chain of MAGI2_4, Q86UL8 (Q86UL8 772-865): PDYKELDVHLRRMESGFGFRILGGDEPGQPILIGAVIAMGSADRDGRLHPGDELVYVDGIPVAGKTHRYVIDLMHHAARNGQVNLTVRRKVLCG

[13] = biological target: MAGI1_1, Q96QZ7
Chain of MAGI1_1, Q96QZ7 (Q96QZ7 1-106): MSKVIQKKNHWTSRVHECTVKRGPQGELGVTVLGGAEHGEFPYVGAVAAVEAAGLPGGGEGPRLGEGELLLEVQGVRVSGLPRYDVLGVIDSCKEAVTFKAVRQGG

[14] = biological target: T7, MPP2, Q14168
T7 sequence (Q14168 180-250, limits assumed, looked up): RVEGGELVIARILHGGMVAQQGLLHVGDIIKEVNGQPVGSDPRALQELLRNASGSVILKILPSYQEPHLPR

[15] = biological target: T8, APBA2_2, Q99767
T8 sequence (Q99767 654-744, limits assumed, looked up): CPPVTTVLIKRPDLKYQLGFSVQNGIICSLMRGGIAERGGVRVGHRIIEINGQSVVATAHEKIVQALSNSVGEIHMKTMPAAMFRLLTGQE

[16] = biological target: GRIP2_7, Q9C0E4
Chain of GRIP2_7, Q9C0E4 (Q9C0E4 934-1023): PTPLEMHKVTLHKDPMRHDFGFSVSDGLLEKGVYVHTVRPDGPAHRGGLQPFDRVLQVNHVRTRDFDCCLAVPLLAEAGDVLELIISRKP

[17] = biological target: T9, HTRA4, P83105
T9 sequence (P83105 378-476, limits assumed, looked up): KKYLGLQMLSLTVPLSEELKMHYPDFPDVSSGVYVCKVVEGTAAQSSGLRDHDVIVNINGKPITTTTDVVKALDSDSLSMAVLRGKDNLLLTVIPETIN

[18] = biological target: T10, DLG3_1, Q92796
T10 sequence (Q92796 125-227, limits assumed, looked up): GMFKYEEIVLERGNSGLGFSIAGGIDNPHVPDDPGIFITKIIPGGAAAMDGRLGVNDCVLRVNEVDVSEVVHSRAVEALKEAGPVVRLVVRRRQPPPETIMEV

[19] = biological target: MAGI2_6, Q86UL8
Chain of MAGI2_6, Q86UL8 (Q86UL8 1141-1229): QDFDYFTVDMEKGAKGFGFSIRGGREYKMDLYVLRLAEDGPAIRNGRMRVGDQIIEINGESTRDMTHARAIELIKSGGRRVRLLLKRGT

[20] = biological target: T11, FRMPD1, Q5SYB0
T11 sequence (Q5SYB0 52-145, limits assumed, looked up): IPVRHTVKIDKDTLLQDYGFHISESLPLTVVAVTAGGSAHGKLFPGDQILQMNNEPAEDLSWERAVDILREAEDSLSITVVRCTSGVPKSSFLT

[21] = biological target: T12, LIN7A, O14910
T12 sequence (O14910 103-200, limits assumed, looked up): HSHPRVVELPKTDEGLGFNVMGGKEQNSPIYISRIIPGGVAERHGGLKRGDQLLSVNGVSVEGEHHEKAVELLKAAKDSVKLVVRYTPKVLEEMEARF

[22] = biological target: GORASP2, Q9H8Y8
[23] = biological target: IL16_3, Q14005
Chain of IL16_3, Q14005 (Q14005 1107-1207): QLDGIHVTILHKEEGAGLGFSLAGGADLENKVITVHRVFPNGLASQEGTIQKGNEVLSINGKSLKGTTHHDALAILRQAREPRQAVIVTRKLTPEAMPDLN

[24] = biological target: DLG2_2, Q15700
Chain of DLG2_2, Q15700 (Q15700 189-283): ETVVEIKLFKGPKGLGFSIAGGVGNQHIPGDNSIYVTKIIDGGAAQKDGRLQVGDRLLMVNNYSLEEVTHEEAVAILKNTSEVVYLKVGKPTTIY

[25] = biological target: FRMPD4, Q14CM0
Chain of FRMPD4, Q14CM0 (Q14CM0 67-160): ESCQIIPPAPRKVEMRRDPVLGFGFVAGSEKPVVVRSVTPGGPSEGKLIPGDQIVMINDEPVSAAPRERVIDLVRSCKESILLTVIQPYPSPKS

[26] = plain residues with an end cap or a label only (N-terminal biotin on a linker: ado-ado)
[27] = plain residues with an end cap or a label only (N-terminal biotin on a linker: none)
[28] = plain residues with an end cap or a label only (N-terminal biotin on a linker: ahx)
[29] = plain residues with an end cap or a label only (N-terminal biotin on a linker: ttds)

Binder: RGGFGRQTQI [NCBP2L, A6PVI3]
- pKd [1, 26]: below the threshold
- pKd [2, 26]: below the threshold
- pKd [3, 26]: below the threshold
- pKd [4, 26]: 4.2
- pKd [5, 26]: below the threshold
- pKd [6, 26]: 3.61
- pKd [7, 26]: below the threshold
- pKd [8, 26]: below the threshold
- pKd [9, 26]: 5.6
- pKd [10, 26]: below the threshold
- pKd [11, 26]: 3.67
- pKd [12, 26]: below the threshold
- pKd [13, 26]: below the threshold
- pKd [14, 26]: below the threshold
- pKd [15, 26]: below the threshold
- pKd [16, 26]: below the threshold
- pKd [17, 26]: below the threshold
- pKd [18, 26]: 3.58
- pKd [19, 26]: 3.78
- pKd [20, 26]: below the threshold
- pKd [21, 26]: below the threshold
- pKd [22, 26]: 4.19
- pKd [23, 26]: below the threshold
- pKd [24, 26]: 4.65
- pKd [25, 26]: below the threshold

Binder: DSKPPLPPDEWV [MERS-E, K9N5R3]
- pKd [1, 27]: 3.53
- pKd [2, 27]: below the threshold
- pKd [3, 27]: below the threshold
- pKd [4, 27]: below the threshold
- pKd [5, 27]: 3.5
- pKd [6, 27]: 4.52
- pKd [7, 27]: below the threshold
- pKd [8, 27]: 4.34
- pKd [9, 27]: 3.66
- pKd [10, 27]: 3.62
- pKd [11, 27]: below the threshold
- pKd [12, 27]: 3.73
- pKd [13, 27]: below the threshold
- pKd [14, 27]: below the threshold
- pKd [15, 27]: below the threshold
- pKd [16, 27]: 3.86
- pKd [17, 27]: 3.68
- pKd [18, 27]: below the threshold
- pKd [19, 27]: 4.75
- pKd [20, 27]: below the threshold
- pKd [21, 27]: below the threshold
- pKd [22, 27]: 4.57
- pKd [23, 27]: below the threshold
- pKd [24, 27]: below the threshold
- pKd [25, 27]: 4.07

Binder: HSGSYLVTSV [APC, P25054]
- pKd [1, 28]: below the threshold
- pKd [2, 28]: 3.79
- pKd [3, 28]: below the threshold
- pKd [4, 28]: 3.64
- pKd [5, 28]: below the threshold
- pKd [6, 28]: 5.04
- pKd [7, 28]: 5.06
- pKd [8, 28]: 4.2
- pKd [9, 28]: 5.11
- pKd [10, 28]: below the threshold
- pKd [11, 28]: 3.67
- pKd [12, 28]: 4.17
- pKd [13, 28]: below the threshold
- pKd [14, 28]: below the threshold
- pKd [15, 28]: below the threshold
- pKd [16, 28]: below the threshold
- pKd [17, 28]: 4.51
- pKd [18, 28]: 3.82
- pKd [19, 28]: 4.85
- pKd [20, 28]: below the threshold
- pKd [21, 28]: below the threshold
- pKd [22, 28]: 4.41
- pKd [23, 28]: below the threshold
- pKd [24, 28]: 5.11
- pKd [25, 28]: below the threshold

Binder: TGDTLEKFVEGL [CBP, Q92793]
- pKd [1, 29]: below the threshold
- pKd [2, 29]: below the threshold
- pKd [3, 29]: below the threshold
- pKd [4, 29]: below the threshold
- pKd [5, 29]: below the threshold
- pKd [6, 29]: below the threshold
- pKd [7, 29]: below the threshold
- pKd [8, 29]: below the threshold
- pKd [9, 29]: below the threshold
- pKd [10, 29]: below the threshold
- pKd [11, 29]: below the threshold
- pKd [12, 29]: below the threshold
- pKd [13, 29]: below the threshold
- pKd [14, 29]: below the threshold
- pKd [15, 29]: below the threshold
- pKd [16, 29]: below the threshold
- pKd [17, 29]: below the threshold
- pKd [18, 29]: below the threshold
- pKd [19, 29]: below the threshold
- pKd [20, 29]: below the threshold
- pKd [21, 29]: below the threshold
- pKd [22, 29]: below the threshold
- pKd [23, 29]: below the threshold
- pKd [24, 29]: below the threshold
- pKd [25, 29]: below the threshold
